Molecular target: TK substrate 1 (HTRF KinEASE-TK kit; Cisbio Inc.)

B1: EML4-ALK fusion polypeptide v1 having the FLAG tag at the N-terminus (protein)
chain: GFAGSLDDSISAASTSDVQDRLSALESRVQQQEDEITVLKAALADVLRRLAISEDHVASVKKSVSSKGQPSPRAVIPMSCITNGSGANRKPSHTSAVSIAGKETLSSAAKSGTEKKKEKPQGQREKKEESHSNDQSPQIRASPSPQPSSQPLQIHRQTPESKNATPTKSIKRPSPAEKSHNSWENSDDSRNKLSKIPSTPKLIPKVTKTADKHKDVIINQEGEYIKMFMRGRPITMFIPSDVDNYDDIRTELPPEKLKLEWAYGYRGKDCRANVYLLPTGEIVYFIASVVVLFNYEERTQRHYLGHTDCVKCLAIHPDKIRIATGQIAGVDKDGRPLQPHVRVWDSVTLSTLQIIGLGTFERGVGCLDFSKADSGVHLCVIDDSNEHMLTVWDWQKKAKGAEIKTTNEVVLAVEFHPTDANTIITCGKSHIFFWTWSGNSLTRKQGIFGKYEKPKFVQCLAFLGNGDVLTGDSGGVMLIWSKTTVEPTPGKGPKVYRRKHQELQAMQMELQSPEYKLSKLRTSTIMTDYNPNYCFAGKTSSISDLKEVPRKNITLIRGLGHGAFGEVYEGQVSGMPNDPSPLQVAVKTLPEVCSEQDELDFLMEALIISKFNHQNIVRCIGVSLQSLPRFILLELMAGGDLKSFLRETRPRPSQPSSLAMLDLLHVARDIACGCQYLEENHFIHRDIAARNCLLTCPGPGRVAKIGDFGMARDIYRASYYRKGGCAMLPVKWMPPEAFMEGIFTSKTDTWSFGVLLWEIFSLGYMPYPSKSNQEVLEFVTSGGRMDPPKNCPGPVYRIMTQCWQHQPEDRPNFAIILERIEYCTQDPDVINTALPIEYGPLVEEEEKVPVRPKDPEGVPPLLVSQQAKREEERSPAAPPPLPTTSSGKAAKKPTAAEVSVRVPRGPAVEGGHVNMAFSQSNPPSELHRVHGSRNKPTSLWNPTYGSWFTEKPTKKNNPIAKKEPHERGNLGLEGSCTVPPNVATGRLPGASLLLEPSSLTANMKEVPLFRLRHFPCGNVNYGYQQQGLPLEAATAPGAGHYEDTILKSKNSMNQPGP
- count of HTRF (that is, phosphorylation of the peptide substrate): increased by about 12 times by the addition of ATP compare to no addition of ATP
